According to PMC3489985 (Analytical biochemistry, 2012):

Tests used:
[1] = tested on: O=[N+]([O-])c1ccc(Cl)c(Cl)c1; test: spectrophotometric enzyme kinetics; type: biochemical, Culex pipiens; details: 30.0 °C
[2] = molecular target: CpGSTD1 (Culex pipiens, UniProt H9M8E3); test: spectrophotometric enzyme kinetics; type: biochemical
[3] = substrate: Cc1cc(=O)oc2ccc(OC(=O)[C@H]3[C@@H](/C=C(\Cl)C(F)(F)F)C3(C)C)cc12; test: fluorescent enzyme kinetics; type: biochemical, Culex pipiens; details: GSH; 30.0 °C
[4] = substrate: Cc1cc(=O)oc2ccc(OC(=O)[C@H]3[C@@H](C=C(Cl)Cl)C3(C)C)cc12; test: fluorescent enzyme kinetics; type: biochemical, Culex pipiens; details: GSH; 30.0 °C

## CpGSTD1 (Culex pipiens)
[1]
  Km: 691 ± 106 µM
  Vmax: 2.32 ± 0.152 µmol/min/mg
  kcat: 0.92 s⁻¹
  kcat/Km: 1300 M⁻¹ s⁻¹

## O=[N+]([O-])c1ccc(Cl)c([N+](=O)[O-])c1 [CDNB, 1-chloro-2,4-dinitrobenzene]
[2]
  Km: 240 ± 18 µM

B1: CpGSTD1 (Culex pipiens) (protein)
chain: MDFYYLPGSAPCRAVQMTAAAVGVELNLKLTNLMAGEHMKPEFLKLNPQHTIPTLVDNGFSLWESRAIQIYLVEKYGKDDSLYPKDPQKRALVNQRLFFDMGVFYQRFGDYWYPQIFAKQPANADNEKKMQEAVAFLNTFLEGHQYAAGDQLTIADLSLAASAATYEVAGFDFSKYPNVQAWLERCKKNAPGYDLNQAGADEFNAKFLGGK
[3]
  Km: 10.0 ± 0.7 µM
  Vmax: 0.487 µmol/min/mg
  kcat: 0.19 s⁻¹
  kcat/Km: 19000 M⁻¹ s⁻¹
[4]
  Km: 9.0 ± 0.8 µM
  Vmax: 0.298 µmol/min/mg
  kcat: 0.12 s⁻¹
  kcat/Km: 13000 M⁻¹ s⁻¹
